From patent US20030166587A1
Non-standard residues stand in square brackets, D forms with d. No end group written: not given here. pS = N[C@@H](COP(=O)(O)O)C(=O)O

Target: specific IκB E3 ubiquitin ligase activity of HeLa extract
Experiment: cell-based or functional assay

Row | IC50 of inhibition of pIκBα ubiquitination (in vitro ubiquitination assay in HeLa extract) [µM] | TNFα-stimulated NF-κB activation (nuclear p65 staining) abolished, percent of microinjected HeLa cells [%] | inhibition of E-selectin expression, percent of microinjected HUVEC [%] | Binder
1 | 5 | 50 to 70 | 70 to 80 | CKKERLLDDRHD[pS]GLD[pS]MKDEE [pp21, doubly phosphorylated IκBα peptide]
2 | 5 | – | – | CERLLDDRHD[pS]GLD[pS]MKDEE [pp19, doubly phosphorylated IκBα peptide]
